According to patent US20130149329A1 (BOARD OF REGENTS FOR OKLAHOMA STATE UNIVERSITY, published 2013):

Target: T1, His-tag IpaB (Shigella flexneri 2457T IpaB with N-terminal His-tag, expressed from pET15b) (Shigella flexneri 2457T, UniProt P18011 1-580)
T1 construct: not shown: N-terminal His-tag from vector pET15b
T1 sequence: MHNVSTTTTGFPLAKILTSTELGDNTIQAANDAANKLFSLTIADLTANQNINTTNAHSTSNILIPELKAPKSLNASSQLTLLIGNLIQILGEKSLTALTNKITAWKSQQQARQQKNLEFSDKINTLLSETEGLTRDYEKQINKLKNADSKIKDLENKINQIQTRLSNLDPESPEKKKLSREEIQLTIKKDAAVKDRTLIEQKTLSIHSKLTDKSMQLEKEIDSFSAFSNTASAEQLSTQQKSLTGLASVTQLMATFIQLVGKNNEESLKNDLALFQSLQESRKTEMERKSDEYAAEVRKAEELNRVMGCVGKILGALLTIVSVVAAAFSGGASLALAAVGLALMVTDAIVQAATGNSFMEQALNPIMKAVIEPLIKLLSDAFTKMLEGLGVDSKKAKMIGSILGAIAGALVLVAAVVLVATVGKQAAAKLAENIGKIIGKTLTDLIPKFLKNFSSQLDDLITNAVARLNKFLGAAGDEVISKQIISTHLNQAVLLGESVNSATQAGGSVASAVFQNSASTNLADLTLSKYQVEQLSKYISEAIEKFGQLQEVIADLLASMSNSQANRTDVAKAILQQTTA
Test: co-expression and co-purification

B1: IpgC (cognate chaperone of IpaB, untagged, expressed from pACYCDuet-1) (other)
chain: MSLNITENESISTAVIDAINSGATLKDINAIPDDMMDDIYSYAYDFYNKGRIEEAEVFFRFLCIYDFYNVDYIMGLAAIYQIKEQFQQAADLYAVAFALGKNDYTPVFHTGQCQLRLKAPLKAKECFELVIQHSNDEKLKIKAQSYLDAIQDIKE
binding result: binds
